# Test results published in patent US20110008383A1.
# Legend:
# [1] = target: CS protein on PfPb transgenic sporozoites (P. falciparum CS repeats in the context of the P. berghei CS protein); experiment: cell-based or functional assay
# DR 13 molecules = DR 13 molecules (UniProt P01903); experiment: peptide competition assay with DR 13 molecules
Substance,"inhibition in TSNA, about 25 µg antibody [1]",IC50 (DR 13 molecules)
MAB 2A10 (antibody),96%,
P. falciparum peptide (T* universal epitope of the CS protein),,1800 nM
